Data published in publication PMC9495280 (Nature structural & molecular biology, 2022).
Substitutions are numbered along the chain they refer to. Numbers in names are those of the source. Read-outs that look alike come from different tables or passages of the source.

B1: KaiC-EA K224A (natural protein)
chain: MTSAEMTSPNNNSEHQAIAKMRTMIEGFDDISHGGLPIGRSTLVSGTSGTGKTLFSIQFLYNGIIEFDEPGVFVTFEETPQDIIKNARSFGWDLAKLVDEGKLFILDASPDPEGQEVVGGFDLSALIERINYAIQKYRARRVSIDSVTSVFQQYDASSVVRRELFRLVARLKQIGATTVMTTERIEEYGPIARYGVEEFVSDNVVILRNVLEGERRRRTLEILALRGTSHMKGEYPFTITDHGINIFPLGAMRLTQRSSNVRVSSGVVRLDEMCGGGFFKDSIILATGATGTGKTLLVSRFVENACANKERAILFAYEESRAQLLRNAYSWGMDFEEMERQNLLKIVCAYPESAGLEDHLQIIKSEINDFKPARIAIDSLSALARGVSNNAFRQFVIGVTGYAKQEEITGLFTNTSDQFMGAHSITDSHIEAITDTIILLQYVEIRGEMSRAINVFKMRGSWHDKAIREFMISDKGPDIKDSFRNFERIISGSPTRITVDEKSELSRIVRGVQEKGPES
B2: nighttime KaiC R216A (natural protein)
chain: B1 chain with R216A, A224K
B3: KaiC-S431E-T432A (natural protein, Synechococcus elongatus)
chain: B1 chain with A224K
B4: nighttime KaiC I430G (natural protein)
chain: B1 chain with A224K, I430G
B5: KaiC-S431A-T432E (natural protein, Synechococcus elongatus)
chain: B1 chain with A224K, E431A, A432E
B6: nighttime KaiC H230A (natural protein)
chain: B1 chain with A224K, H230A
B7: nighttime KaiC-K457A (natural protein)
chain: B1 chain with A224K, K457A
B8: nighttime KaiC R217A (natural protein)
chain: B1 chain with R217A, A224K
B9: daytime KaiC-K457A (natural protein)
chain: B1 chain with A224K, E431A, A432E, K457A
B10: nighttime KaiC R226A (natural protein)
chain: B1 chain with A224K, R226A
B11: KaiB-I87A (natural protein, Synechococcus elongatus, UniProt Q79PF5 1-102, looked up)
chain: MSPRKTYILKLYVAGNTPNSVRALKTLKNILEVEFQGVYALKVIDVLKNPQLAEEDKILATPTLAKVLPLPVRRIIGDLSDREKVLAGLDLLYGELQDSDDF

Assays:
[1] = biological target: fluorescently labeled KaiB (Synechococcus elongatus) (UniProt Q79PF5); test: fluorescence polarisation
cryo-EM structure [2] = biological target: the molecule itself; test: cryo-EM structure
cryo-EM structure [3] = biological target: the molecule itself; test: cryo-EM structure; remark: listed apart in the source
KaiC-S431E-T432A = biological target: B3; test: fluorescence polarisation

| Kd [1] [µM] | Binder | also measured |
| --- | --- | --- |
| 4.6 | B1 | – |
| > 25 | B2 | – |
| – | B3 | stoichiometry N (cryo-EM structure [2]): 6 |
| > 25 | B4 | – |
| > 43 | B5 | stoichiometry N (cryo-EM structure [3]): 6 |
| 5.9 | B6 | – |
| 4.6 | B7 | – |
| > 13 | B8 | KaiB cooperativity index (fsKaiB as secondary titrant) [1]: 1.6 |
| 7.3 | B9 | – |
| > 38 | B10 | – |
| – | B11 | binding result (KaiC-S431E-T432A): binds |
